PMC9632566 (Nature Communications, 2022)

Target: NA of A/California/04/2009 (A/H1N1pdm09) (Influenza A virus A/California/04/2009 …, strain)
Test: ELISA
Conditions: one partner purified

B1: DA05A30 (antibody, V domains shown)
VH: EVQLVESGAEVKKPGESLKISCQGSGYRFSSHWIVWVRQMPGKGLEWMGIIYPGDSDTRYSPSFQGQVTISTDKSNAYLQWSSLKASDTGMYYCARHPQPYGSGYYGEFDYWGQGTLVTVSS
VL: DIQMTQPPSVSGAPGQRVTISCTGSSSNIGAGYDVYWYQQFPGTAPKLLIYANDNRPSGVPDRFSGSKSGTSASLVITGLQAEDEADYYCQSYDSSLSGSVVFGGGTKLTVL
Q: Does B1 bind?
A: binds
